The values that follow come from publication PMC12041529.

A short description of this data set: western blot, co-transfected HEK293T. The following applies: glycan lost; control: Flag-GPNMB (WT). In general terms: A western blot detects proteins with antibodies after separation by electrophoresis.

B1: glycoprotein nonmetastatic melanoma protein B (GPNMB): GPNMB296Q (protein)
parent chain: MECLYYFLGFLLLAARLPLDAAKRFHDVLGNERPSAYMREHNQLNGWSSDENDWNEKLYPVWKRGDMRWKNSWKGGRVQAVLTSDSPALVGSNITFAVNLIFPRCQKEDANGNIVYEKNCRNEAGLSADPYVYNWTAWSEDSDGENGTGQSHHNVFPDGKPFPHHPGWRRWNFIYVFHTLGQYFQKLGRCSVRVSVNTANVTLGPQLMEVTVYRRHGRAYVPIAQVKDVYVVTDQIPVFVTMFQKNDRNSSDETFLKDLPIMFDVLIHDPSHFLNYSTINYKWSFGDNTGLFVSTNHTVNHTYVLNGTFSLNLTVKAAAPGPCPPPPPPPRPSKPTPSLATTLKSYDSNTPGPAGDNPLELSRIPDENCQINRYGHFQATITIVEGILEVNIIQMTDVLMPVPWPESSLIDFVVTCQGSIPTEVCTIISDPTCEITQNTVCSPVDVDEMCLLTVRRTFNGSGTYCVNLTLGDDTSLALTSTLISVPDRDPASPLRMANSALISVGCLAIFVTVISLLVYKKHKEYNPIENSPGNVVRSKGLSVFLNRAKAVFFPGNQEKDPLLKNQEFKGVS
For the protein B1, the “other: SNAP29 protein level” value was “decreases”.
